± gives the uncertainty stated by the source.
B1: POU domain, class 4, transcription factor 1, residues 266 to 347; numbered along this chain, Q01851 (parent)
chain: RELEAFAERFKQRRIKLGVTQADVGSALANLKIPGVGSLSQSTICRFESLTLSHNNMIALKPILQAWLEEAEGAQREKMNKP

Variants of: B1
Experiment: abundance fitness (aPCA) (normalised: wild type 0, dead -1); higher = more abundant; growth selection in yeast, the domain comes from the species named
Conditions: Homo sapiens

Row | Variant | abundance fitness
1 | A22W | -0.038 ± 0.084
2 | A22G | -0.017 ± 0.056
3 | A22V | -0.242 ± 0.095
4 | A22P | 0.13 ± 0.28
5 | A22T | -0.068 ± 0.1
6 | A22C | -0.098 ± 0.27
7 | A22E | 0.043 ± 0.098
8 | A22N | 0.11 ± 0.33
9 | G37S | -0.047 ± 0.032
10 | G37K | -0.074 ± 0.041
11 | G37I | -0.116 ± 0.063
12 | G37W | -0.328 ± 0.036
13 | G37A | -0.045 ± 0.028
14 | G37H | -0.05 ± 0.066
15 | G37D | -0.092 ± 0.052
16 | G37R | -0.115 ± 0.025
17 | I63T | 0.034 ± 0.08
18 | I63C | -0.028 ± 0.075
19 | I63R | -0.154 ± 0.04
20 | V24S | -0.688 ± 0.1
21 | I44Q | -0.989 ± 0.34
22 | I44W | -0.827 ± 0.12
23 | I44F | -0.726 ± 0.2
24 | I44S | -0.68 ± 0.12

Row | Variant | abundance fitness
25 | K78P | -0.048 ± 0.12
26 | K78W | 0.007 ± 0.063
27 | K78T | -0.273 ± 0.1
28 | K78G | -0.036 ± 0.045
29 | T43P | -0.606 ± 0.14
30 | T43V | -0.031 ± 0.045
31 | T43R | -0.483 ± 0.06
32 | T43E | -0.187 ± 0.072
33 | N56K | 0.015 ± 0.069
34 | N56Y | 0.23 ± 0.24
35 | N56G | -0.023 ± 0.033
36 | N56L | 0.058 ± 0.042
37 | N56S | 0.046 ± 0.052
38 | N56C | 0.145 ± 0.092
39 | N30E | -0.043 ± 0.072
40 | N30Q | 0.026 ± 0.071
41 | N30S | 0.091 ± 0.08
42 | N30H | 0.054 ± 0.15
43 | R46I | -0.971 ± 0.33
44 | R46A | 0.094 ± 0.047
45 | V36Y | -0.257 ± 0.38
46 | E2F | -0.245 ± 0.07
47 | E2I | -0.266 ± 0.062
48 | E2P | -0.437 ± 0.04

Row | Variant | abundance fitness
49 | E2W | -0.508 ± 0.038
50 | E2V | -0.345 ± 0.029
51 | E2Q | -0.16 ± 0.033
52 | R9K | -0.143 ± 0.16
53 | R9D | -0.122 ± 0.23
54 | R9C | -0.007 ± 0.15
55 | W67F | 0.018 ± 0.15
56 | W67Q | -0.712 ± 0.13
57 | W67R | -0.639 ± 0.073
58 | W67D | -0.425 ± 0.23
59 | W67L | -0.475 ± 0.069
60 | W67N | -0.65 ± 0.31
61 | E72Q | -0.21 ± 0.12
62 | E72S | -0.229 ± 0.06
63 | E72W | -0.415 ± 0.065
64 | E72P | -0.348 ± 0.09
65 | K81S | -0.016 ± 0.063
66 | K81D | -0.024 ± 0.11
67 | P34I | -0.197 ± 0.066
68 | L68G | -0.821 ± 0.11
69 | L68R | -0.774 ± 0.12
70 | L68W | -0.626 ± 0.1
71 | Q65A | -0.041 ± 0.028
72 | Q65H | -0.047 ± 0.05

Row | Variant | abundance fitness
73 | Q75F | -0.043 ± 0.081
74 | Q75T | -0.033 ± 0.048
75 | Q75L | -0.001 ± 0.04
76 | Q75D | -0.045 ± 0.072
77 | Q75R | -0.028 ± 0.032
78 | Q75P | -0.063 ± 0.065
79 | Q75N | -0.061 ± 0.11
80 | Q75C | -0.015 ± 0.051
81 | L17P | -1.06 ± 0.08
82 | L17W | -0.336 ± 0.044
83 | L17S | -0.608 ± 0.035
84 | L17E | -0.804 ± 0.075
85 | A71F | -0.289 ± 0.13
86 | A71W | -0.186 ± 0.054
87 | A71N | 0.044 ± 0.1
88 | A71S | -0.079 ± 0.067
89 | A71P | -0.588 ± 0.15
90 | A66S | -0.005 ± 0.031
91 | A66C | -0.049 ± 0.039
92 | A66L | -0.125 ± 0.029
93 | A66V | -0.12 ± 0.026
94 | A66K | 0.044 ± 0.035
95 | A66N | -0.017 ± 0.05
96 | M79V | 0.007 ± 0.024

Row | Variant | abundance fitness
97 | M79D | -0.022 ± 0.041
98 | M79K | 0.039 ± 0.035
99 | S26D | 0.057 ± 0.068
100 | S26A | 0.011 ± 0.045
101 | S26P | -0.221 ± 0.081
102 | S26L | -0.016 ± 0.05
103 | S26G | -0.032 ± 0.039
104 | L28Y | -0.439 ± 0.066
105 | L28C | -0.042 ± 0.039
106 | L28K | -0.601 ± 0.047
107 | L28E | -0.782 ± 0.048
108 | L28Q | -0.628 ± 0.052
109 | L28T | -0.312 ± 0.042
110 | S49Y | -0.396 ± 0.044
111 | S49G | -0.002 ± 0.029
112 | S49A | -0.004 ± 0.031
113 | A29G | 0.132 ± 0.1
114 | A29V | 0.088 ± 0.35
115 | A29W | -0.605 ± 0.5
116 | A29P | -0.184 ± 0.16
117 | N80L | -0.026 ± 0.039
118 | N80D | -0.007 ± 0.062
119 | N80P | 0.073 ± 0.058
120 | N80I | -0.121 ± 0.14

Row | Variant | abundance fitness
121 | N80R | -0.032 ± 0.034
122 | F6G | -0.906 ± 0.034
123 | F6Q | -0.622 ± 0.047
124 | F6I | -0.318 ± 0.051
125 | F6D | -0.442 ± 0.041
126 | F6L | -0.362 ± 0.027
127 | E4L | -0.134 ± 0.045
128 | E4A | -0.071 ± 0.048
129 | E4H | 0.108 ± 0.079
130 | E4Y | -0.153 ± 0.13
131 | A59E | -0.026 ± 0.044
132 | A59C | -0.054 ± 0.063
133 | A59P | -0.368 ± 0.1
134 | A59L | -0.027 ± 0.05
135 | G25M | -0.009 ± 0.07
136 | G25S | 0.001 ± 0.047
137 | G25W | -0.007 ± 0.055
138 | G25K | 0.009 ± 0.083
139 | G25A | 0.04 ± 0.047
140 | G25L | -0.038 ± 0.048
141 | G73A | 0.015 ± 0.05
142 | G73T | 0.063 ± 0.069
143 | G73I | 0.121 ± 0.17
144 | G73Q | 0.043 ± 0.09

Row | Variant | abundance fitness
145 | C45P | -0.18 ± 0.075
146 | C45Y | -0.037 ± 0.1
147 | C45W | -0.076 ± 0.048
148 | C45S | 0.079 ± 0.047
149 | C45N | -0.084 ± 0.17
150 | R14Y | -0.884 ± 0.098
151 | R14H | -1.16 ± 0.14
152 | R14P | -1.13 ± 0.12
153 | R14K | -1.09 ± 0.14
154 | E77Q | -0.02 ± 0.049
155 | E77S | -0.024 ± 0.032
156 | E77I | -0.063 ± 0.065
157 | E77C | -0.088 ± 0.041
158 | E77Y | -0.009 ± 0.068
159 | E8A | -0.008 ± 0.063
160 | E8Y | -0.017 ± 0.19
161 | E8W | -0.284 ± 0.078
162 | E8R | -0.002 ± 0.046
163 | E8C | -0.238 ± 0.12
164 | E8T | -0.078 ± 0.094
165 | R13K | -0.048 ± 0.051
166 | R13G | 0.013 ± 0.033
167 | R13P | -1.06 ± 0.2

— the Human Domainome abundance scans (Beltran et al. 2025)
